The target of experiment [1] is T1, human GIP receptor (hGIPR) (human, UniProt P48546 22-466).
T1 sequence: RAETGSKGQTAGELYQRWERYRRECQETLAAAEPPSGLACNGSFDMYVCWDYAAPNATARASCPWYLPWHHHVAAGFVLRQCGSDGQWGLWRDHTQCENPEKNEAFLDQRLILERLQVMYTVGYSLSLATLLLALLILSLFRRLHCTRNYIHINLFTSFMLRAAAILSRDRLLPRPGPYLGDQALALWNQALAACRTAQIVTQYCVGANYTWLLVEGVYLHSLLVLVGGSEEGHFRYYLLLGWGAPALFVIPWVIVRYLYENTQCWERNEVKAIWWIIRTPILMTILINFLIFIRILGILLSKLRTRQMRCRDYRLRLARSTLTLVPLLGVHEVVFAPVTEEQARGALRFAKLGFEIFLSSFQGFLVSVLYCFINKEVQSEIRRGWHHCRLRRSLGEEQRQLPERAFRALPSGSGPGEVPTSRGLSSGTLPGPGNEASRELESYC
As to the kind of experiment: cell-based or functional assay.

For experiment [2], the target named is T1, human GIP receptor (hGIPR). Briefly: cell-based or functional assay. This is another data set of the same source.
The target of experiment [3] is T2, human GLP-1 receptor (hGLP-1R) (human, UniProt P43220 24-463). As to the kind of experiment: cell-based or functional assay.
Experiment [4] addresses T3, human GCG receptor (hGCGR) (human, UniProt P47871 26-477). Briefly: cell-based or functional assay.
The target of experiment [5] is T1, human GIP receptor (hGIPR). As to the kind of experiment: radioligand competition binding, SPA, membranes of HEK293 cells overexpressing hGIPR, with bacitracin. How it is done: (§1) The assays are performed in the presence of bacitracin as a non-specific blocking agent to prevent acylated moieties of test analogs from binding to protein components used in standard assay buffers (e.g., albumin).
(§2) Competition curves are plotted as the percent specific inhibition (y-axis) versus log concentration of compound (x-axis) and analyzed using a four-parameter nonlinear regression fit with variable slope (ABase or Genedata).
In general terms: In a radioligand displacement assay an active substance lowers the binding of a labelled ligand.

For experiment [6], the target named is T1, human GIP receptor (hGIPR). Briefly: cell-based or functional assay. This is another data set of the same source.
Experiment [7] addresses T2, human GLP-1 receptor (hGLP-1R). As to the kind of experiment: cell-based or functional assay. The source holds these as a separate data set.
The target of experiment [8] is T3, human GCG receptor (hGCGR). As to the kind of experiment: cell-based or functional assay. The source holds these as a separate data set.
The target of experiment [9] is T3, human GCG receptor (hGCGR). As to the kind of experiment: radioligand competition binding, SPA, membranes of HEK293 cells overexpressing hGCGR, with bacitracin. As to the method: as §1, §2
Experiment [10] deals with T2, human GLP-1 receptor (hGLP-1R). Briefly: radioligand competition binding, SPA, membranes of HEK293 cells overexpressing hGLP-1R, with bacitracin. How it is done:
as §1, §2

Data on four molecules can be found in patent publication US20230102339A1 (Eli Lilly, published 2023).

Where two headings read alike, the source gives them in different places.

T3 sequence (P47871 other isoform, or with tags, fused parts or gaps limits assumed): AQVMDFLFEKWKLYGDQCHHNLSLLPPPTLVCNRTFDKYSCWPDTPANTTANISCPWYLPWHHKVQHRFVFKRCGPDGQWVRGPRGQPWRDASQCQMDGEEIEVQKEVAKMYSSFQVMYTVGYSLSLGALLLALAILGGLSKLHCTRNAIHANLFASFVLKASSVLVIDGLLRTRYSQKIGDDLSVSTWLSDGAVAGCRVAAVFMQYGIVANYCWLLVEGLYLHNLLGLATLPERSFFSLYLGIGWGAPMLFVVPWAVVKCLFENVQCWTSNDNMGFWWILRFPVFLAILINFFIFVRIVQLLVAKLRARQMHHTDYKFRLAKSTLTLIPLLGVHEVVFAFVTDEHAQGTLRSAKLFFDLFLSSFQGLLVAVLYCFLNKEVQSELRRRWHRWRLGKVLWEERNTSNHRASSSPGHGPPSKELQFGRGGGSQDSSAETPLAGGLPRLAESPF

In experiment [1], “human GIP(1-42)NH2 (from UniProt P09681 52-93) (ligand)” yielded a cAMP EC50 (0.1% bovine casein) of 1.08 nM; a cAMP EC50 (0.1% bovine casein, 1.0% human serum albumin) of 0.756 nM; a cAMP Emax (0.1% bovine casein) of 98%.

B1: Example 3 (Incretin Analog 3) (peptide)
peptide: YXQGTXTSDXSIXLDXKAQXXFIXXLLEGGPSSGEPPPS
modifications: Aib at 2; αMeF(2F) at 6; 4Pal at 10; αMeL at 13; Orn (O) at 16; K17 conjugated on the epsilon-amino group with 2-[2-(2-amino-ethoxy)-ethoxy]-acetyl-γE-CO-(CH2)18-CO2H; αMeL at 20; Aib at 21; D-glutamic acid (e) at 24; αMeY at 25; C-terminal amide (S39-NH2)
notes: Synthetic acylated 39-residue peptide
With B1, the “cAMP EC50 (0.1% bovine casein)” value is 0.0306 nM in experiment [2], 0.451 nM in [3] and 2.49 nM in experiment [4]. The “cAMP Emax (0.1% bovine casein)” value was determined as 103% in experiment [2], 107% in experiment [3] and 99% in [4]. Besides, the Ki (commonly the equilibrium dissociation constant of an inhibitor or competing ligand from its target) in experiment [5] is 0.114 nM; in experiment [9] it was 1.73 nM; in experiment [10] it was 3.63 nM. Besides, the “cAMP EC50 (0.1% bovine casein, 1.0% human serum albumin)” value amounted to 3.72 nM in [6], 114 nM in experiment [7] and 480 nM in experiment [8]. Moreover, the “cAMP Emax (0.1% bovine casein, 1.0% human serum albumin)” value stood at 105% in [6], 111% in [7] and 97% in experiment [8].

B2: Example 1 (Incretin Analog 1) (peptide)
peptide: YXQGTXTSDYSILLDXKAQXAFIEYLLEGGPSSGEPPPE
modifications: Aib at 2; αMeF(2F) at 6; Orn (O) at 16; K17 conjugated on the epsilon-amino group with 2-[2-(2-amino-ethoxy)-ethoxy]-acetyl-γE-CO-(CH2)18-CO2H; 4Pal at 20; C-terminal amide (E39-NH2)
notes: Synthetic acylated 39-residue peptide, obtained as TFA salt
Turning to B2, the “cAMP EC50 (0.1% bovine casein)” value in [2] was determined as 0.0513 nM; in experiment [3] it was 0.345 nM; in experiment [4] it was 1.2 nM. The “cAMP Emax (0.1% bovine casein)” value in [2] came out at 102%; in [3], 106%; in [4], 101%. The Ki in experiment [5] worked out at 0.111 nM; in experiment [9] it was 0.629 nM; in experiment [10], 4.53 nM. In addition, the “cAMP EC50 (0.1% bovine casein, 1.0% human serum albumin)” value in [7] amounted to 180 nM. Also, the “cAMP Emax (0.1% bovine casein, 1.0% human serum albumin)” value in experiment [7] stood at 102%.

B3: Example 2 (Incretin Analog 2) (peptide)
peptide: YXQGTXTSDYSIXLDXKAQXAFIEXLLEGGPSSGEPPPS
modifications: Aib at 2; αMeF(2F) at 6; αMeL at 13; Orn (O) at 16; K17 conjugated on the epsilon-amino group with 2-[2-(2-amino-ethoxy)-ethoxy]-acetyl-γE-CO-(CH2)18-CO2H; Iva at 20; αMeY at 25; C-terminal amide (S39-NH2)
notes: as for B1
For the molecule B3, the “cAMP EC50 (0.1% bovine casein)” value in experiment [2] was 0.0256 nM. Moreover, in experiment [2], the “cAMP Emax (0.1% bovine casein)” value worked out at 101%. For the same molecule, the Ki turned out to be 0.158 nM in [5], 0.95 nM in [9] and 2.54 nM in experiment [10]. Besides, the “cAMP EC50 (0.1% bovine casein, 1.0% human serum albumin)” value amounted to 2.91 nM in experiment [6], 119 nM in [7] and 537 nM in experiment [8]. The “cAMP Emax (0.1% bovine casein, 1.0% human serum albumin)” value in experiment [6] came out at 99%; in experiment [7], 116%; in experiment [8], 112%.
